1 molecule from patent US6365161 can be followed below.

Assay [1] has as its target human FcγRI (CD64) on cells (human) (UniProt P12314). The experiment in a line: flow cytometry, fluorescein-conjugated antibody on peripheral blood monocytes.
Assay [2] has as its target soluble fusion protein consisting of the extracellular domain of human FcγRI and human IgM heavy chain (sFcγRI-µ) (human) (UniProt P12314). The experiment in a line: ELISA on captured FcγRI/IgM heavy chain fusion protein, against a nonspecific human IgG1. Background: ELISA stands for enzyme-linked immunosorbent assay.

Chain of human FcγRI (CD64) on cells (human) (P12314 16-374): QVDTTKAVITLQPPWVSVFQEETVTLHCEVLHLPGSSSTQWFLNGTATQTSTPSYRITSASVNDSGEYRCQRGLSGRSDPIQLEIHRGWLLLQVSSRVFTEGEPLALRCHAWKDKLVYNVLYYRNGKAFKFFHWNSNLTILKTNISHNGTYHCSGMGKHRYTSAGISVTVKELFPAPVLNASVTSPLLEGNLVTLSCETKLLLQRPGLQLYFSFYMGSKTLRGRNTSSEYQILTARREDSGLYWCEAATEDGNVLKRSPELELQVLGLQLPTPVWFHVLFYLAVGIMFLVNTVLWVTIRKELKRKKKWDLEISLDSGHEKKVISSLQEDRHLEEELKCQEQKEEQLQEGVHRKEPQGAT
Chain of soluble fusion protein consisting of the extracellular domain of human FcγRI and human IgM heavy chain (sFcγRI-µ) (human) (P12314 other isoform, or with tags, fused parts or gaps limits assumed): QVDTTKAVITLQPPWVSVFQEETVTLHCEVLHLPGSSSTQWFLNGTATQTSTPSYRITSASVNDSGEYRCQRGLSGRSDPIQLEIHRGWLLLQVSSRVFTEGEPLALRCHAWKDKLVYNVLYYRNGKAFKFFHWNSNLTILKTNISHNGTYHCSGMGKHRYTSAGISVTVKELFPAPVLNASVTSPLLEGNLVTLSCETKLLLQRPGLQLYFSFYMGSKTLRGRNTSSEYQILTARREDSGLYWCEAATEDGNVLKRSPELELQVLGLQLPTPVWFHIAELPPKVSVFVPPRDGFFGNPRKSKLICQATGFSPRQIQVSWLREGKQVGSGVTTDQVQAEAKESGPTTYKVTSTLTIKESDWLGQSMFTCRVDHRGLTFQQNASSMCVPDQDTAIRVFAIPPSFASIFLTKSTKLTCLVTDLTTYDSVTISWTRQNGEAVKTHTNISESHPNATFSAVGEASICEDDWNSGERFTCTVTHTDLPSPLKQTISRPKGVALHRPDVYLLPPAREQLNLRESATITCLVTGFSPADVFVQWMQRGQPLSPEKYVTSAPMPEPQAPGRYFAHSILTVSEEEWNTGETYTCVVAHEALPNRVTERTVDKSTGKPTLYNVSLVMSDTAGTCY

B1: humanized anti-FcγRI antibody H22 (KOL VH/REI Vκ mAb) (antibody, from a related filing, V domains shown)
VH: EVQLVESGGGVVQPGRSLRLSCSSSGFIFSDNYMYWVRQAPGKGLEWVATISDGGSYTYYPDSVKGRFTISRDNSKNTLFLQMDSLRPEDTGVYFCARGYYRYEGAMDYWGQGTPVTVSS
VL: DIQLTQSPSSLSASVGDRVTITCKSSQSVLYSSNQKNYLAWYQQKPGKAPKLLIYWASTRESGVPSRFSGSGSGTDFTFTISSLQPEDIATYYCHQYLSSWTFGQGTKVEIK
Regarding B1, the Antibody sites per cell (antibody sites per cell) in assay [1] is 10500. In assay [2], this molecule yielded a percent of binding via the Fv portion greater than 95%.
